# How the values were obtained:
# [1] = target: secretory chicken FcRY (lacking the membrane-spanning domain, residues 36-1396); assay: competitive binding assay against DIG-IgY on FcRY-immobilized plate, ELISA; settings: pH 6.0, DIG-IgY tracer (m10) 27.8 nM, value is DIG-IgY still bound (lower = stronger competition), no-competitor level est. 0.17 nM, n = 3, read off a plot
# [2] = target: secretory chicken FcRY (lacking the membrane-spanning domain, residues 36-1396) (chicken); assay: BLI; BLItz, advanced kinetics; chicken FcRY (400 nM) immobilised on Ni-NTA sensor via His tag; Igs 50-600 nM; pH 5.5 (PBS, 0.05% Tween 20, 20 mM MES, 0.5% BSA); association 120 s, dissociation 120 s; 1:1 fit
# [3] = target: secretory chicken FcRY (lacking the membrane-spanning domain, residues 36-1396) (chicken)
# [4] = target: secretory chicken FcRY (lacking the membrane-spanning domain, residues 36-1396) (chicken); remark: listed apart in the source
# [5] = target: secretory chicken FcRY (lacking the membrane-spanning domain, residues 36-1396) (chicken); assay: ELISA; graded pH (pH 4.0-7.4), IgY-Fc mutants at 55.6 nM on FcRY held on copper-coated plates; the acidic points (strongest at pH 5.5, pH 5.0-6.0)
# [6] = target: native quail IgY (qIgY); assay: bio-layer interferometry (BLItz, advanced kinetics mode); settings: pH 5.5; PBS (composition not stated); PBS with 20 mM MES at pH 5.5 or 20 mM HEPES at pH 7.4
# [7] = target: recombinant quail IgY-Fc wild type (WT); assay: as above; settings: pH 5.5; PBS (composition not stated); PBS with 20 mM MES at pH 5.5 or 20 mM HEPES at pH 7.4
# [8] = target: recombinant quail IgY-Fc Y363A Y363A; assay: as above; settings: pH 5.5; PBS (composition not stated); PBS with 20 mM MES at pH 5.5 or 20 mM HEPES at pH 7.4
# [9] = target: recombinant quail IgY-Fc G365A G365A; assay: as above; settings: pH 5.5; PBS (composition not stated); PBS with 20 mM MES at pH 5.5 or 20 mM HEPES at pH 7.4
# [10] = competitor 55.6 nM, parent: est. 0.080
# [11] = competitor 111.1 nM, parent: est. 0.060
# [12] = competitor 277.8 nM, parent: est. 0.042
"response [1, 10] [nM]","response [1, 11] [nM]","response [1, 12] [nM]",Kd [2] [nM],koff [2] [s⁻¹],kon [2] [M⁻¹ s⁻¹],Substance,other results
–,–,–,275,0.0095,35000,native quail IgY (ligand),–
0.086,0.066,0.05,–,–,–,recombinant quail wild-type IgY-Fc G365S,–

# Continued, substance first:
Substance,"response [1, 10] [nM]","response [1, 11] [nM]","response [1, 12] [nM]",Kd [2] [nM],koff [2] [s⁻¹],kon [2] [M⁻¹ s⁻¹],other results
recombinant quail wild-type IgY-Fc G365D,0.15,0.13,0.14,–,–,–,–
quail IgY-Fc mutant G365A (domain or fragment),–,–,–,197,0.0082,42000,"uptake of the intravenously injected DIG-labeled IgY-Fc mutant (20 ug/100 g BW) into quail egg yolks, eggs of 6 d, relative to WT [3]: 2 fold"
recombinant quail wild-type IgY-Fc N408A,0.11,0.1,0.086,–,–,–,–
recombinant quail wild-type IgY-Fc (domain or fragment),–,–,–,333,0.0065,19000,"uptake of DIG-labeled WT tracer into egg yolks of laying quail co-injected with the FcRY-neutralizing rabbit antibody Strong Ab (1 mg/100 g BW), relative to control rabbit IgG [4]: 20%; uptake of DIG-labeled WT tracer into egg yolks of laying quail co-injected with the FcRY-neutralizing rabbit antibody Weak Ab (1 mg/100 g BW), relative to control [4]: 60%"
quail IgY-Fc mutant Y363A (domain or fragment),–,–,–,65,0.0015,23000,amount bound at pH 5.0-6.0 relative to WT and G365A [5]: 2 fold
"secretory FcRY (IgY-Fc receptor, PLA2R homologue) ectodomain",–,–,–,–,–,–,ka [6]: 35000 M⁻¹ s⁻¹; kd [6]: 0.0095 s⁻¹; ka [7]: 19000 M⁻¹ s⁻¹; kd [7]: 0.0065 s⁻¹; ka [8]: 23000 M⁻¹ s⁻¹; kd [8]: 0.0015 s⁻¹; ka [9]: 42000 M⁻¹ s⁻¹; kd [9]: 0.0082 s⁻¹
